T1: Myo5, Q04439
T1 sequence (Q04439 1072-1160, looked up): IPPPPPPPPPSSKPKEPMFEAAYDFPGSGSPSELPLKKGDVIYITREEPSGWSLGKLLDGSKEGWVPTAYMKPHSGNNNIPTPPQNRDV

T2: Bud14, P27637
T2 sequence (P27637 247-328, looked up): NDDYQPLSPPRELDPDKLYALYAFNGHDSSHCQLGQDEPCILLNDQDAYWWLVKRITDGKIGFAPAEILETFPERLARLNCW

T3: Boi2, P39969
T3 sequence (P39969 32-116, looked up): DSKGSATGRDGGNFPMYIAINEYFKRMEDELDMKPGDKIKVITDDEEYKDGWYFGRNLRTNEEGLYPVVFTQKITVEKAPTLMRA

T4: Nbp2, Q12163
T4 sequence (Q12163 103-180, looked up): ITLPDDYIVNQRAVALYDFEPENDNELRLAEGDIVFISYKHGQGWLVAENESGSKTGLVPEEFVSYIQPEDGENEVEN

T5: Hof1, Q05080
T5 sequence (Q05080 590-669, looked up): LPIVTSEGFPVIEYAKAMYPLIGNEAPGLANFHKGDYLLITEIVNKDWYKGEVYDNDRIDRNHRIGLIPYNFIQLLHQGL

T6: Boi1, P38041
T6 sequence (P38041 1-86, looked up): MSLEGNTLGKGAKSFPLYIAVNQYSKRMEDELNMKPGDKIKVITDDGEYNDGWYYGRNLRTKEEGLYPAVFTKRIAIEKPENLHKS

T7: Pex13, P80667
T7 sequence (P80667 295-386, looked up): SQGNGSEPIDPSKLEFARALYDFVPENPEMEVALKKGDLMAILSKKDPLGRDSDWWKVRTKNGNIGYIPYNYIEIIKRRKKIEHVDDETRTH

T8: Abp1, P15891
T8 sequence (P15891 535-592, looked up): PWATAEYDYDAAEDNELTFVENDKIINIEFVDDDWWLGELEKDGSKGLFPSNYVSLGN

T9: Hse1, P38753
T9 sequence (P38753 208-285, looked up): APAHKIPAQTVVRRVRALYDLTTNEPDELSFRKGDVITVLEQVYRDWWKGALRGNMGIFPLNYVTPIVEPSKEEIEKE

T10: Pin3, Q06449
T10 sequence (Q06449 53-122, looked up): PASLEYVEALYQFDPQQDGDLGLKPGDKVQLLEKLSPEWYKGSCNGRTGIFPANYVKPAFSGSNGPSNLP

T11: Cyk3, Q07533
T11 sequence (Q07533 1-83, looked up): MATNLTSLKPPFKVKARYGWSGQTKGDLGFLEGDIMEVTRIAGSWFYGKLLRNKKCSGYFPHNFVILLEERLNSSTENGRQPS

T12: Fus1, P11710
T12 sequence (P11710 432-512, looked up): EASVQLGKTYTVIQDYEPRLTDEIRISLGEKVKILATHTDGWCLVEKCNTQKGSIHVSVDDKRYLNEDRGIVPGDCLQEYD

T13: Bzz1-2, P38822
T13 sequence (P38822 568-633, looked up): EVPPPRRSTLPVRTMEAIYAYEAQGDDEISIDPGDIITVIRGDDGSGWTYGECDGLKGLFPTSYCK

T14: Bbc1, P47068
T14 sequence (P47068 1-78, looked up): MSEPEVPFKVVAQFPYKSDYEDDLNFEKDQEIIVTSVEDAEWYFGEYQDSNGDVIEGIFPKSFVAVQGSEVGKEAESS

T15: Lsb4, P32793
T15 sequence (P32793 402-468, looked up): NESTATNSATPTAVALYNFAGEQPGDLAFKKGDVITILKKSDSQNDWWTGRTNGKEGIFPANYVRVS

T16: Lsb3, P43603
T16 sequence (P43603 385-451, looked up): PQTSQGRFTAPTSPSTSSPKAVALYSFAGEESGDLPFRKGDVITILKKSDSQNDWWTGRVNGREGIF

T17: Cdc25, P04821
T17 sequence (P04821 50-136, looked up): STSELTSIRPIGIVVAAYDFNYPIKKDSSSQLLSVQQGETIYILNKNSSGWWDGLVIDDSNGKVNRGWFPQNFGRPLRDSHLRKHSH

T18: Bzz1-1, P38822
T18 sequence (P38822 478-572, looked up): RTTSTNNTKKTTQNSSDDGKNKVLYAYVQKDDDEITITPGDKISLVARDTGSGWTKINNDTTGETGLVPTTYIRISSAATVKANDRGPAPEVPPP

T19: Sla1-2, P32790
T19 sequence (P32790 60-140, looked up): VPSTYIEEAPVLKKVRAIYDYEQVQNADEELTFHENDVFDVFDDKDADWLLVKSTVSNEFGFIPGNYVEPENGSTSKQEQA

T20: Sla1-3, P32790
T20 sequence (P32790 344-424, looked up): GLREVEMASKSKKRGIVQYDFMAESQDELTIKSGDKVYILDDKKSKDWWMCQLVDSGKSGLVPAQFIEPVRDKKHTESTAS

T21: Lsb1, P53281
T21 sequence (P53281 45-122, looked up): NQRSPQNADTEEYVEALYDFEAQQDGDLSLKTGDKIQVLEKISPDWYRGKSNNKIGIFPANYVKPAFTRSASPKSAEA


Experiments:
Test in all cases: SPOT array
Myo5, Q04439 = molecular target: T1, Myo5, Q04439; details: median of control spots 471
Bud14, P27637 = molecular target: T2, Bud14, P27637; details: median of control spots 956
Boi2, P39969 = molecular target: T3, Boi2, P39969; details: median of control spots 1161
Nbp2, Q12163 = molecular target: T4, Nbp2, Q12163; details: median of control spots 357
Hof1, Q05080 = molecular target: T5, Hof1, Q05080; details: median of control spots 4086
Sho1, P40073 = details: median of control spots 1148
GST = details: median of control spots 978
Boi1, P38041 = molecular target: T6, Boi1, P38041; details: median of control spots 1162
Pex13, P80667 = molecular target: T7, Pex13, P80667; details: median of control spots 1341
Abp1, P15891 = molecular target: T8, Abp1, P15891; details: median of control spots 935
Hse1, P38753 = molecular target: T9, Hse1, P38753; details: median of control spots 1727
Rvs167, P39743 = details: median of control spots 2707
Pin3, Q06449 = molecular target: T10, Pin3, Q06449; details: median of control spots 2171
Cyk3, Q07533 = molecular target: T11, Cyk3, Q07533; details: median of control spots 1451
Fus1, P11710 = molecular target: T12, Fus1, P11710; details: median of control spots 1200
Bzz1-2, P38822 = molecular target: T13, Bzz1-2, P38822; details: median of control spots 4538
Bbc1, P47068 = molecular target: T14, Bbc1, P47068; details: median of control spots 796
Lsb4, P32793 = molecular target: T15, Lsb4, P32793; details: median of control spots 397
Bem1-1, P29366 = details: median of control spots 4282
Lsb3, P43603 = molecular target: T16, Lsb3, P43603; details: median of control spots 406
Bem1-2, P29366 = details: median of control spots 4347
Cdc25, P04821 = molecular target: T17, Cdc25, P04821; details: median of control spots 969
Bzz1-1, P38822 = molecular target: T18, Bzz1-1, P38822; details: median of control spots 4446
Sla1-2, P32790 = molecular target: T19, Sla1-2, P32790; details: median of control spots 712
Sla1-3, P32790 = molecular target: T20, Sla1-3, P32790; details: median of control spots 5475
Lsb1, P53281 = molecular target: T21, Lsb1, P53281; details: median of control spots 388
Myo3, P36006 = details: median of control spots 468

Sequence of Bem1-1, P29366 (P29366 55-141): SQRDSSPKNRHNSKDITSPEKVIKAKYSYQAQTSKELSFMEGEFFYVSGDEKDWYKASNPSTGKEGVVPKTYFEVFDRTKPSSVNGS
Sequence of Sho1, P40073 (P40073 287-367): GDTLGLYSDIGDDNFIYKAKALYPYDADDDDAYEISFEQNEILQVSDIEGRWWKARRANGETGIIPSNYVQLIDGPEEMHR
Sequence of Bem1-2, P29366 (P29366 139-227): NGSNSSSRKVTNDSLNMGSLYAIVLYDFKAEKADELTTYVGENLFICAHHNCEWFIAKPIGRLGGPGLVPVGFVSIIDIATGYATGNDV
Sequence of Rvs167, P39743 (P39743 419-482): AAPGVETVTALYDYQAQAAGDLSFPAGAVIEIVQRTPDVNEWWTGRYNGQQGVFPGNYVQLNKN

Row | SPOT intensity (Myo5, Q04439) | SPOT intensity (Bud14, P27637) | SPOT intensity (Boi2, P39969) | SPOT intensity (Nbp2, Q12163) | SPOT intensity (Hof1, Q05080) | SPOT intensity (Sho1, P40073) | SPOT intensity (GST) | SPOT intensity (Boi1, P38041) | SPOT intensity (Pex13, P80667) | SPOT intensity (Abp1, P15891) | SPOT intensity (Hse1, P38753) | SPOT intensity (Rvs167, P39743) | SPOT intensity (Pin3, Q06449) | SPOT intensity (Cyk3, Q07533) | SPOT intensity (Fus1, P11710) | SPOT intensity (Bzz1-2, P38822) | SPOT intensity (Bbc1, P47068) | SPOT intensity (Lsb4, P32793) | SPOT intensity (Bem1-1, P29366) | SPOT intensity (Lsb3, P43603) | Binder | further results
1 | 0 | 0 | 0 | 2 | 0 | 40 | 0 | 0 | 21 | 133 | 9 | 4 | 86 | 0 | 0 | 0 | 226 | 57 | 0 | 41 | HPRFVSPRIPSRIVK | SPOT intensity (Bem1-2, P29366): 2; SPOT intensity (Cdc25, P04821): 2; SPOT intensity (Bzz1-1, P38822): 0; SPOT intensity (Sla1-2, P32790): 0; SPOT intensity (Sla1-3, P32790): 15; SPOT intensity (Lsb1, P53281): 379; SPOT intensity (Myo3, P36006): 3
2 | 0 | 0 | 0 | 0 | 23 | 0 | 0 | 0 | 81 | 0 | 1 | 263 | 0 | 0 | 0 | 0 | 43 | 281 | 0 | 493 | DGNEEKPLLPTRPNK | SPOT intensity (Bem1-2, P29366): 0; SPOT intensity (Cdc25, P04821): 0; SPOT intensity (Bzz1-1, P38822): 0; SPOT intensity (Sla1-2, P32790): 0; SPOT intensity (Sla1-3, P32790): 5; SPOT intensity (Lsb1, P53281): 174; SPOT intensity (Myo3, P36006): 0
3 | 1 | 0 | 0 | 0 | 0 | 0 | 0 | 1 | 0 | 0 | 0 | 0 | 45 | 0 | 0 | 0 | 0 | 0 | 0 | 0 | TYNRTAFQIPGDQSI | SPOT intensity (Bem1-2, P29366): 0; SPOT intensity (Cdc25, P04821): 0; SPOT intensity (Bzz1-1, P38822): 2; SPOT intensity (Sla1-2, P32790): 0; SPOT intensity (Sla1-3, P32790): 1; SPOT intensity (Lsb1, P53281): 705; SPOT intensity (Myo3, P36006): 0
4 | 0 | 19 | 3 | 0 | 14 | 65 | 0 | 7 | 2 | 92 | 302 | 0 | 1 | 4 | 37 | 18 | 272 | 1 | 0 | 0 | NILKRRPLKLEAPSK | SPOT intensity (Bem1-2, P29366): 0; SPOT intensity (Cdc25, P04821): 297; SPOT intensity (Bzz1-1, P38822): 2; SPOT intensity (Sla1-2, P32790): 0; SPOT intensity (Sla1-3, P32790): 28; SPOT intensity (Lsb1, P53281): 2; SPOT intensity (Myo3, P36006): 4
5 | 7 | 35 | 0 | 12 | 1460 | 61 | 0 | 3 | 84 | 59 | 24 | 0 | 85 | 0 | 1 | 62 | 0 | 22 | 1 | 1 | NNNKMRPHLPPLSSG | SPOT intensity (Bem1-2, P29366): 16; SPOT intensity (Cdc25, P04821): 22; SPOT intensity (Bzz1-1, P38822): 1; SPOT intensity (Sla1-2, P32790): 0; SPOT intensity (Sla1-3, P32790): 0; SPOT intensity (Lsb1, P53281): 81; SPOT intensity (Myo3, P36006): 18
6 | 0 | 0 | 0 | 0 | 0 | 8 | 0 | 0 | 0 | 10 | 0 | 0 | 5 | 0 | 0 | 0 | 0 | 0 | 0 | 0 | VKPRQLFPIPLNKVD | SPOT intensity (Bem1-2, P29366): 0; SPOT intensity (Cdc25, P04821): 0; SPOT intensity (Bzz1-1, P38822): 1; SPOT intensity (Sla1-2, P32790): 0; SPOT intensity (Sla1-3, P32790): 0; SPOT intensity (Lsb1, P53281): 880; SPOT intensity (Myo3, P36006): 0

From publication PMC2756588
